Test results published in the supplement of paper PMC12042874.
± gives the uncertainty stated by the source.

Assay: amyloid nucleation score (Sup35N fusion, yeast selection) (log enrichment); library NNK2; higher = more nucleation; inactive = no reads after selection
Procedure, shortened: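 Using DiMSum, nucleation scores were taken as the log enrichment of output over input reads, centred on the mode score of non-aggregating sequences. The input and output reads came from Illumina sequencing of plasmid inserts, with sequences under 100 input reads excluded. The yeast were psi-negative, expressed Sup35N fused to peptides of 20 random codons, were induced with 100 μM copper sulfate for 24 hours, and were grown 7 days at 30°C on medium lacking adenine and uracil.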

Substance | amyloid nucleation score
DNSYVMDLECLICCNFSNTK | 8.201 ± 0.025
LFCTFKLRAMTFTSNKSRVV | 1.04 ± 0.43
LRRDL | -0.408 ± 0.63
NRQRRPRLVDKYGASRGVVY | 3.31 ± 0.11
SMQCPLAAQTDM | -0.301 ± 0.45
LRWRSCGNELDFKLNGLDFE | 0.586 ± 0.74
GRCTRERW | 0.123 ± 0.32
LWLGLFGCVVLHGFRIKMAL | 0.251 ± 0.35
ADEVLYYGCVSSCLMFGVLI | -0.069 ± 0.35
LVFDRFDGNFNRSMSVAVRV | -0.211 ± 0.39
RMDVISEKFVWANESNCGVA | 0.362 ± 0.25
FMSICR | 1.47 ± 0.4
GKCMV | 4.02 ± 0.095
LLVFNLIYPSVRKGFFIIYA | inactive
VLSDL | -1.18 ± 0.75
MLSTTEVCVGPDRD | 3.89 ± 0.088
TLTPNNSTCTGVCFCLSYNQ | 9.475 ± 0.059
YLLYCVS | inactive
SYSSPHRINGCVIRP | -0.084 ± 0.54
MMNTMLHGIVVMNFSWVASW | 4.26 ± 0.053
IIPLMLFSTLWGFKVHMKGY | -0.207 ± 0.55
VIIGIFCNSKSS | 4.33 ± 0.1
YGYIFISCENVRTQRSVIDG | inactive
LVPGYWYMWVTGNVKRVFCD | -1.54 ± 0.62
RMLSRSRWLTI | -0.169 ± 0.34

Substance | amyloid nucleation score
SPGIARDLANRILVTIRWVS | 1.25 ± 0.32
ICIFHDWVIIICCSIRMRCL | -0.823 ± 0.63
SWRTWISRCYFTLDDVSKTA | 0.181 ± 0.43
LVSNSSLSYPLDSYGSSRSD | -0.113 ± 0.49
DWCTAAGDEMDMVVGGKVPN | 0.427 ± 0.34
SCSSCLL | -0.183 ± 1
MVRVYSVCDKDHQMYNHFFR | 0.67 ± 0.44
YPMNSVPDI | -0.858 ± 0.48
GLLGWMGAYGANPCYPTTLF | 0.515 ± 0.8
TPGLCSNL | -1.44 ± 1
CRCGWKGDSFKISMKMRNWV | 5.36 ± 0.066
VCQVFVNGVSSDRVAVLVVI | 5.25 ± 0.059
SSPHWSK | -0.051 ± 0.37
NTCGMRSLGKTFRIVSSLGS | 0.285 ± 0.43
MHHQSSAFNQGHASPYLSWK | 0.741 ± 0.39
MFAVLTGSIFKWKWWTIGFR | -0.265 ± 0.28
GVRRRRIRRWLNVSGRYMCE | 2.38 ± 0.23
NGAYNACNNTGYRTHAY | -0.818 ± 0.78
VWWFPRLPIPKESVIINGLS | inactive
NLFPSQTLYVFRHVGCCG | inactive
AWSYVQFRTFYALTVPTSAL | -0.125 ± 0.38
SCWRRMSSITPG | 1.68 ± 0.47
VFERDMLNWVSLSLDHCWCS | 1.31 ± 0.36
TIENLNLFWF | 5.73 ± 0.06
YMYFVFIRSSKSVMIKDVHC | inactive

Substance | amyloid nucleation score
TGDCC | 0.32 ± 0.33
PCCQEACDGCEGNRDLPGEA | 1.65 ± 0.32
YTNSQYSPLPQQSNLKVSNI | -0.716 ± 0.56
CLCQIHSRSYPFIL | 0.148 ± 1
VDKLGKLEVYSWLYWV | -1.86 ± 0.55
SSMLYTYVRLMNMNNIYVAS | 0.737 ± 0.62
SARIGISRFCPHAVSPVITK | inactive
AGVSLFVHGNL | 4.45 ± 0.095
DYTNSTAEGFTF | inactive
VWLDIYSQLEDENVYSSYLD | 2.44 ± 0.086
VIFSGFFYISPTADPHDSFI | inactive
VDHYTETTRL | 0.493 ± 0.24
LIYNVDSVMNFVRVDNYDSP | 6.88 ± 0.087
RRSGGPGEDGGSYERQFTSR | 0.95 ± 0.32
YTLRSNTNASMRRHLMQVPR | -0.531 ± 1.1
ANSYYIVYLGPHHAYFFILK | 3.75 ± 0.12
NFVRRSKSDKPCCYKTHSST | -0.747 ± 0.41
LILRSVSNYAITIMFAFDTR | 4.39 ± 0.096
QKYRVL | -0.611 ± 0.32
GHVDCWYGRVTALGQAKYE | 0.344 ± 0.26
LTFYCME | -0.465 ± 0.45
DFWFSGDFK | -0.778 ± 0.44
CDHVVVIIIVGWGAEGE | 0.512 ± 0.25
EPLVKYPEYSFPSMVCMPSI | -0.478 ± 0.64
RKLTIA | -0.887 ± 0.42

Substance | amyloid nucleation score
VLAILVTNLRLSSWFQSHMM | 0.837 ± 0.52
WMKFTWWRHEYYVVS | -0.195 ± 0.79
GVGEEGARVKWIVCNKCFFP | 2.1 ± 0.12
PATDPWCS | -0.14 ± 0.25
AYSGIECGVVQWSFYRRKLI | inactive
HAKTWM | 0.066 ± 1
FECKVVILKCRLGYIFGANN | 1.26 ± 0.16
FNVSVCCG | 0.607 ± 0.65
SWMNYRCRQDMSCCK | 0.908 ± 0.47
GDNYIS | 0.782 ± 0.41
WVVNRTQGYGRLSSGDEEVP | 1.35 ± 0.37
WLLFMS | -0.353 ± 0.54
SACVLCFYQIFFYRVDCTGG | 6.414 ± 0.052
LRYHKTILYTRFSRNHTYAT | 0.498 ± 0.74
SMLEDRYHSALTENRRDWKQ | 0.564 ± 0.28
YQNIFLRTAALRAGSAD | 0.765 ± 0.24
VILNYVIYL | 10.08 ± 0.071
SYLDILCVRIVSHHCSVSSK | 0.112 ± 0.46
GRYNVDFKSIMRYIECGKTA | -0.27 ± 1.1
QTPIGK | -0.66 ± 1.1
YFNMSLTIPNI | 0.566 ± 0.47
MDLYCD | inactive
VEGVFLISMPPWPFYRLPSR | 0.961 ± 0.81
NARFFNSFNSFM | 3 ± 0.076
SMGYYDLFELYPNRHGYYGF | inactive

Substance | amyloid nucleation score
DAMFFKCRMYRAVGRFFREG | 0.02 ± 0.28
MIHYRWTHYNTRIGGYRYWE | 3.54 ± 0.05
YMCQRTETMSVSTWGKILCV | inactive
RHFYRSKMAMVYGFHTAFTG | -0.582 ± 0.34
RFVVWRHFSWIATMLSTIPV | 1.13 ± 0.35
EVMEFSNDFSRIFFAFKGFV | -0.665 ± 0.78
VVRMVHLSADFQGK | 5.26 ± 0.095
LISATPQSSFHHFEMNSGSH | 0.275 ± 0.23
VHLANSMLY | 3.15 ± 0.047
NYSGLDERPVWVFWYLVFEY | -1.09 ± 1.1
MHKAFWPNLALFVMNGYGGV | 0.304 ± 0.42
GSRGMVFQMFT | 0.94 ± 0.48
RIVGRSFYMQFGRVWDFLRS | -0.546 ± 0.61
LYLEMMCAIVWQQSYRHNRT | 0.727 ± 0.13
PNIIGKLGNLNSLVLC | 0.382 ± 0.8
ICPPAWFKRVNDGGVYALNE | 0.904 ± 0.48
WNLYSLSN | inactive
KIIVHYIYRRIRLCDSNLKR | 8.398 ± 0.046
GVNSLVERFNLWYVLGERTF | -0.35 ± 0.33
FRDQGIFIHLWS | 0.781 ± 0.44
GKPTFFMG | 0.6 ± 0.74
MDTVMRLYVCVCCRSFLRIG | 1.62 ± 0.35
YFFRMSWPLGPMTSFRTLYL | -0.608 ± 0.4
STLTFIVSSSDEGWSHYREA | 3.79 ± 0.07
ISGYRWNHVSTFVGIYRVHS | 0.98 ± 0.53

Substance | amyloid nucleation score
KVALL | -0.257 ± 0.76
LCIEMD | 0.566 ± 0.38
LGTLGYTDAILWNYMSHCKG | inactive
PYNMVVYLGLLSRC | 0.919 ± 0.17
CVILLVIFMLYIYWFSDMFL | -0.721 ± 0.63
CWMIQLVVLEWCAHGPRVAN | -0.304 ± 0.41
RDSQWGLSRKDFSHACVLTY | -0.408 ± 0.48
NCVWNWRHWFTVVNSF | 1.95 ± 0.089
PSQAGKIMVLKNTRWNHRDC | 1.01 ± 0.52
TLDTSYYFLTRVFNHLNISE | -0.776 ± 0.55
AKGMGPKNDTTYYFPVSVFE | -0.213 ± 0.48
FRVKLTLRFLNITECCLDYL | 3.29 ± 0.095
LLYTSWLV | 0.272 ± 0.41
RRSYFFLVTFTLDVRDMVCF | 1.77 ± 0.18
NYMRVNWLLFSSSQPVICVG | 0.107 ± 0.79
ERSNSRVVDL | -0.539 ± 0.44
KLDVAAFVKVAE | 6.142 ± 0.039
IIFPGCKYLRYKDKEK | inactive
KSLNDDVKLKNKGSSPSAPW | inactive
QCVVTVCDRL | 1.73 ± 0.13
GNKCLSWVES | -0.12 ± 0.23
RQSFVVDNNELCKFTCDYSC | 7.376 ± 0.043
CMCENTYNRRIKVRYEWLKW | -0.619 ± 0.21
FCKVGFALLGVNQDVLYEMS | -0.714 ± 1
YIIDRKEHFLSKCY | -0.738 ± 0.55

Substance | amyloid nucleation score
FGFLPSVIWEASDIGSDCLE | 0.072 ± 1.1
ARKYLRCGSACVKVEYF | 3.51 ± 0.047
LASMMPSKIPN | inactive
VVRGIRVTR | 0.116 ± 0.28
VCRLFLYGQWLVGRRANSYS | -0.731 ± 0.39
NITSSNRGVSFEETGVNAGI | inactive
WSMVQLPFSFIYPRGYLNMG | -0.615 ± 0.64
MRGAYLRFRSMCAGAAGKCD | inactive
VTIFILFSLNSGGHGSDRVW | 4.849 ± 0.031
DVSLNRGVRPF | -0.123 ± 0.76
AWSLDVTTM | 0.051 ± 0.27
DILGFCLSCMLRVGLFTWGR | inactive
SIKCEFELIDLTSQAPCEGQ | 0.611 ± 0.5
VNDLLTPCGIHLQPVWDYES | -0.013 ± 0.49
WHSTVSLWSHPFPHKATKEP | 0.256 ± 0.42
WDTLARYSGIQLVFE | -0.974 ± 0.55
FKGSWHAFECEAYEYAWV | -0.018 ± 1.1
FVGCVNLRLCSSITTAWSSL | 8.346 ± 0.046
DTERRC | -1.06 ± 0.61
SANHMKTDA | 0.436 ± 0.8
LLYQLRNMVILEHFMMIDFM | inactive
EVNRAPNVSIVYRRNSGTAD | -0.154 ± 0.4
